According to PMC8001305:

What was measured:
[1] = system: 2LTRZFP-GFP (designed six-finger zinc finger protein fused to GFP); test: BLI; settings: BLI (BLItz, SA tips): 10 mM Tris-HCl pH 7.5, 90 mM KCl, 1 mM MgCl2, 90 uM ZnSO4, 5 mM DTT, 0.5 mM PMSF, temperature not stated; IN: 1:5 IN reaction buffer …
[2] = target: HIV-1 integrase (IN) (HIV-1) (UniProt P12497); test: BLI; settings: BLI (BLItz, SA tips): 10 mM Tris-HCl pH 7.5, 90 mM KCl, 1 mM MgCl2, 90 uM ZnSO4, 5 mM DTT, 0.5 mM PMSF, temperature not stated; IN: 1:5 IN reaction buffer …
[3] = system: 2LTRZFP-GFP (designed six-finger zinc finger protein fused to GFP); test: competition BLI; settings: BLI (BLItz, SA tips): 10 mM Tris-HCl pH 7.5, 90 mM KCl, 1 mM MgCl2, 90 uM ZnSO4, 5 mM DTT, 0.5 mM PMSF, temperature not stated; IN: 1:5 IN reaction buffer …
[4] = system: 2LTRZFP-GFP (designed six-finger zinc finger protein fused to GFP); test: competition ELISA; settings: BLI (BLItz, SA tips): 10 mM Tris-HCl pH 7.5, 90 mM KCl, 1 mM MgCl2, 90 uM ZnSO4, 5 mM DTT, 0.5 mM PMSF, temperature not stated, IN: 1:5 IN reaction buffer …

| Sequence | Kd [1] [nM] | Kd [2] [nM] | binding signal (nm BLI signal (0.55 without 2LTRZFP-GFP)) [2] | binding signal (nm BLI signal (1.2 without competitor)) [3] | binding signal [4] [% inhibition] | inhibition of binding to immobilized ds2LTR ([4]; 2 uM dsNeg as competitor against immobilized ds2LTR, OD 1.0 vs 1.3 uninhibited) [% inhibition] |
| --- | --- | --- | --- | --- | --- | --- |
| AAATCTCTAGCAGTACTGGATGGGCTAATT (double strand) [ds2LTR (30 bp HIV-1 2-LTR circle junction)] | 40 | 75 | 0.47 | 0.45 | 62 | – |
| TGACAGTGCTAGCGTATCATCTAGTCGACG (double strand) [dsNeg (30 bp irrelevant DNA)] | – | – | – | 1 | – | 22 |
